From patent US20090291081A1 (AbbVie / Abbott, published 2009)
Positions count from the first letter of the chain named. Several values for one entry are separate records, joined by “and”; a condition that tells them apart may be missing. Identical values can stand only once. Like-named read-outs stand apart in the source and are kept apart here.

Legend:
human IL-1α [1] = target: T1, human IL-1α (human, UniProt P01583 113-271); test: method not given
T1 construct: also called hIL-1α; rhIL-1 alpha
T1 sequence (looked up): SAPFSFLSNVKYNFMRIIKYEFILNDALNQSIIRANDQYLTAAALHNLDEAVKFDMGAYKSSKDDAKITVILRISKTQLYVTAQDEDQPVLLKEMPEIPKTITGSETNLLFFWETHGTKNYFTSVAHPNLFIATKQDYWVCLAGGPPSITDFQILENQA

human IL-1α [2] = target: T1, human IL-1α; test: cell-based or functional assay
human IL-1α [3] = target: T1, human IL-1α; test: BIAcore kinetic analysis of the dAb
human IL-1α [4] = target: T1, human IL-1α; test: cell-based or functional assay; remark: listed apart in the source
human IL-1α [5] = target: T1, human IL-1α; test: cell-based or functional assay; remark: listed apart in the source
human IL-1β [6] = target: T2, human IL-1β (human, UniProt P01584 117-269); test: cell-based or functional assay
human IL-1α [7] = target: T1, human IL-1α; test: cell-based or functional assay; remark: listed apart in the source
human IL-1β [8] = target: T2, human IL-1β; test: cell-based or functional assay; remark: listed apart in the source
human IL-1β [9] = target: T2, human IL-1β; test: cell-based or functional assay; remark: listed apart in the source
human IL-1α [10] = target: T1, human IL-1α; test: cell-based or functional assay; remark: listed apart in the source
human IL-1β [11] = target: T2, human IL-1β; test: Receptor Binding Assay, IgG; value beside the ABT2 clone
human IL-1α [12] = target: T1, human IL-1α; test: Receptor Binding Assay, IgG; value beside the ABT1 clone
human IL-1α [13] = target: T1, human IL-1α; test: cell-based or functional assay; remark: listed apart in the source
human IL-1α [14] = target: T1, human IL-1α; test: BIAcore kinetic analysis of the dAb; remark: listed apart in the source
human IL-1α [15] = target: T1, human IL-1α; test: BIAcore kinetic analysis of the dAb; remark: listed apart in the source
human IL-1α [16] = target: T1, human IL-1α; test: cell-based or functional assay; remark: listed apart in the source
human IL-1β [17] = target: T2, human IL-1β; test: cell-based or functional assay; remark: listed apart in the source
human IL-1α [18] = target: T1, human IL-1α; test: BIAcore, IL-1α coated chip, dAb flowed over

B1: ABT1-95 (other)
VL: DIQMTQSPSSLSASVGDRVTITCRASQPIHGNLRWYQQKPGKAPKLLIYNISNLQSGVPSRFSGSGSGTDFTLTISSLQPEDFATYYCQQGYRWPVTFGQGTKVEIKR
notes: dAb, Vκ, to IL-1α; also called dAb ABT1-95
In the case of B1, the Kd (human IL-1α [1]) is reported as 200 nM, the “MRC5 ND10” value (human IL-1α [2]) is reported as 150 nM and the “MRC5 ND50” value (human IL-1α [2]) is reported as 700 nM. It also gave a Kd (human IL-1α [3]) of 45 nM, a koff (human IL-1α [3]) of 0.022 s⁻¹ and a kon (human IL-1α [3]) of 490000 M⁻¹ s⁻¹.

B2: ABT1-95-4 (other)
VL: B1 VL with H30V, G31R, N50S, I51S, N53Y, Y87H
notes: dAb, Vκ, to IL-1α
B2 was tested, and the Kd (human IL-1α [1]) was 0.9 nM and the “MRC5 ND50” value (human IL-1α [4]) was 0.9 nM.

B3: ABT2-108/ABT1-122-511 hu IgG1/K wt (bispecific antibody, V domains shown)
VH: EVQLLESGGGLVQPGGSLRLSCAASGFTFAEYTMMWVRQAPGKGLEWVSRIGQDGKNTYYADSVKGRFTISRDNSKNTLYLQMNSLRAEDTAVYYCAKYTGRVGVHHLFDYWGQGTLVTSS
VL: DIQMTQSPSSLSASVGDRVTITCRASQPIWTELNWYQQKPGKAPKLLIYGSSSLQRGVPSRFSGSGSGTDFTLTISSLQPEDFATYYCKQFAYFPATFGQGTKVEIKR
B3 was tested, and the “IL-1α IC50” value (human IL-1α [5]) was 40 nM, the “IL-1β IC50” value (human IL-1β [6]) was 8 nM and the “MRC5 IL-1α” value (human IL-1α [7]) was 80 nM. For the same binder, the “MRC5 IL-1β” value (human IL-1β [8]) was 8 nM and the “MRC-5 IL-1β neutralization potency” value (human IL-1β [9]) was roughly 8 nM.

B4: ABT2-108-620x/ABT1-122-511 huIgG1/K wt (bispecific antibody, V domains shown)
VH: EVQLLESGGGLVQPGGSLRLSCAASGFTFAEESWMWVRQAPGKGLEWVSRIGQDGKNTYYREDVKGRFTISRDNSKNTLYLQMNSLRAEDTAVYYCAKYTGRIMGHHLFDYWGQGTLVTVSS
VL: B3 VL
For B4, the “IL-1β IC50” value (human IL-1β [6]) was 0.01 nM and 0.02 nM and 0.03 nM and the “MRC-5 IL-1β neutralization potency” value (human IL-1β [9]) was roughly 0.03 nM.

B5: ABT2-108-620x/ABT1-95-15 huIgG1/K wt (bispecific antibody, V domains shown)
VH: B4 VH
VL: B1 VL with H30V, G31R, N50S, I51S, N53Y, Q55E, S56P, Y87H
In the case of B5, the “IL-1α IC50” value (human IL-1α [5]) is reported as 5 nM, the “IL-1β IC50” value (human IL-1β [6]) is reported as 0.04 nM and the “MRC-5 IL-1a inhibition assay EC50” value (human IL-1α [10]) is reported as 5.07 nM.

B6: ABT2-65-166/ABT1-95-A3 huIgG1/K wt (bispecific antibody, V domains shown)
VH: EVQLLESGGGLVQPGGSLRLSCAASGFTFEDYQMGWVRQAPGKGLEWVSSISAMGGRTYYADSVKGRFTISRDNSKNTLYLQMNSLRAEDTAVYYCAQNLVRLGRSRWMFDYWGQGTLVTVSS
VL: DIQMTQSPSSLSASVGDRVTITCRASKPGVRNMRWYQQKPGKAPKLLIYSVSYLEPGVPSRFSGSGSGTDFTLTISSLQPEDFATYHCLQGYRWPPTFGQGTKVEIKR
notes: hu IgG1/K wt; also called 1-95-A3 / 2-65-166
With B6 the “IL-1α IC50” value (human IL-1α [5]) was 0.026 nM and 0.0178 nM, the “IL-1β IC50” value (human IL-1β [6]) was 0.17 nM and the IC50 (human IL-1β [11]) was 0.709 nM. For the same binder, the “MRC5 IL-1α” value (human IL-1α [7]) was 0.017 nM, the “MRC5 IL-1β” value (human IL-1β [8]) was 0.15 nM and the IC50 (human IL-1α [12]) was 0.083 nM.

B7: ABT2-65-166/ABT1-95-A6 hu IgG1/K wt (bispecific antibody, V domains shown)
VH: B6 VH
VL: B6 VL with S50A, V51K, L89K, P96V, T97Q
notes: hu IgG1/K wt; also called 1-95-A6 / 2-65-166
With B7 the “IL-1β IC50” value (human IL-1β [6]) was 0.32 nM, the IC50 (human IL-1β [11]) was 0.537 nM and the “MRC5 IL-1α” value (human IL-1α [7]) was 0.019 nM. For the same binder, the “MRC5 IL-1β” value (human IL-1β [8]) was 0.207 nM and the IC50 (human IL-1α [12]) was 0.108 nM.

B8: IgG pairing ABT1-95-A2 with ABT2-65-166 (bispecific antibody, V domains shown)
VH: B6 VH
VL: B6 VL with A25I, S26L, K27Q, G29P, V30G, M33L, V51K, Y53F, L89Q, P96V
notes: IgG; also called 1-95-A2 / 2-65-166
In the case of B8, the IC50 (human IL-1β [11]) is reported as 0.073 nM, the “MRC5 IL-1α” value (human IL-1α [7]) is reported as 0.08 nM and the “MRC5 IL-1β” value (human IL-1β [8]) is reported as 0.121 nM. The IC50 (human IL-1α [12]) was 0.067 nM.

B9: ABT2-108/ABT1-122 hu IgG1/K wt (bispecific antibody, V domains shown)
VH: B3 VH
VL: DIQMTQSPSSLSASVGDRVTITCRASQPIWTELNWYQQKPGKAPKLLIYGSSSLQSGVPRFSGSGSGTDFTLTISSLQPEDFATYYCQQFAYFPATFGQGTKVEIKR
B9 was tested, and the “IL-1β IC50” value (human IL-1β [6]) was 15 nM and 20 nM and 40 nM and the “MRC-5 IL-1β neutralization potency” value (human IL-1β [9]) was roughly 15 nM.

B10: ABT2-108-605/ABT1-122 hu IgG1/K wt (bispecific antibody, V domains shown)
VH: B4 VH with E32Y, S33T, W34M, I103V, M104G, G105V
VL: B9 VL
With B10 the “MRC-5 IL-1β neutralization potency” value (human IL-1β [9]) was roughly 0.35 nM.

B11: ABT2-108-620x/ABT1-122 huIgG1/K wt (bispecific antibody, V domains shown)
VH: B4 VH
VL: B9 VL
For B11, the “IL-1α IC50” value (human IL-1α [5]) was 150 nM, the “IL-1β IC50” value (human IL-1β [6]) was 0.05 nM and the “MRC-5 IL-1β neutralization potency” value (human IL-1β [9]) was roughly 0.05 nM.

B12: ABT1-6-23 (other)
VH: EVQLLESGGGLVQPGGSLRLSCAASGFTFVRYDMAWVRQAPGKGLEWVSSIYKSGALTSYADSVKGRFTISRDNSKNTLYLQMNSLRAEDTAVYYCAKGWASFDYWGQGTLVTVSS
notes: dAb, VH, to IL-1α; also called dAb ABT1-6-23
In the case of B12, the “MRC5 ND50” value (human IL-1α [13]) is reported as 0.03 µM, the “MRC5 ND10” value (human IL-1α [2]) is reported as 3 nM and the “MRC5 ND50” value (human IL-1α [2]) is reported as 30 nM. It also gave a Kd (human IL-1α [14]) of 61 nM, a koff (human IL-1α [14]) of 0.012 s⁻¹ and a kon (human IL-1α [14]) of 200000 M⁻¹ s⁻¹.

B13: ABT1-86 (other)
VH: EVQLLESGGGLVQPGGSLRLSCAASGFTFDRYIMAWVRQAPGKGLEWVSSITPSGAATYYADSVKGRFTISRDNSKNTLYLQMNSLRAEDTAVYYCAEEPADRYSTWTFDYWGQGTLVTVSS
notes: dAb, VH, to IL-1α
Binder B13 has a Kd (human IL-1α [15]) of 110 nM, a koff (human IL-1α [15]) of 0.09 s⁻¹ and a kon (human IL-1α [15]) of 820000 M⁻¹ s⁻¹. The “MRC5 ND10” value (human IL-1α [2]) was less than 200 nM and the “MRC5 ND50” value (human IL-1α [2]) was 900 nM.

B14: ABT1-6 (other)
VH: B12 VH with V30G, R31A, A35Q, Y52N
With B14 the “MRC5 ND50” value (human IL-1α [13]) was 15 µM.

B15: ABT1-6-3 (other)
VH: B12 VH with V30G, R31A, A35Q
In the case of B15, the “MRC5 ND50” value (human IL-1α [13]) is reported as 0.08 µM.

B16: ABT1-6-15 (other)
VH: B12 VH with Y52N
In the case of B16, the “MRC5 ND50” value (human IL-1α [13]) is reported as 2 µM.

B17: ABT1-141-25 (other)
VL: DIQMTQSPSSLSASVGDRVTITCRASQWIQKQLAWYQQKPGKAPKLLIYSSSYLQSGVPSRFSGSGSGTDFTLTISSLQPEDFATYYCQQHLRVPMTFGQGTKVEIKR
B17 was tested, and the “MRC5 ND50” value (human IL-1α [16]) was 5 nM.

B18: ABT1-141-47 (other)
VL: B17 VL with S26N, Y53H, E81Q
B18 was tested, and the “MRC5 ND50” value (human IL-1α [16]) was 1 nM.

B19: ABT1-141-76 (other)
VL: B17 VL with S26N, Y53H
B19 was tested, and the “MRC5 ND50” value (human IL-1α [16]) was 1 nM.

B20: ABT2-65-17 (other)
VH: B6 VH with A23V, G56N, N74D
With B20 the “MRC5 ND50” value (human IL-1β [17]) was 2 nM.

B21: ABT2-65-166 (other)
VH: B6 VH
B21 was tested, and the “MRC5 ND50” value (human IL-1β [17]) was 4 nM.

B22: ABT2-108-538x/ABT1-95-15 huIgG1/K wt (bispecific antibody, V domains shown)
VH: B4 VH with E31D, S33G, W34M, G52T, Q53Y, D54S, R61A, E62D, D63S, M104L
VL: B6 VL with K27Q, G29I, M33L, V51S, L89Q, P96V
notes: hu IgG1/K wt
With B22 the IC50 (human IL-1β [11]) was 0.071 nM, the “MRC5 IL-1α” value (human IL-1α [7]) was 8 nM and the “MRC5 IL-1β” value (human IL-1β [8]) was 0.042 nM. For the same binder, the IC50 (human IL-1α [12]) was 0.54 nM.

B23: ABT1-95-1 (other)
chain: B1 VL with Y87H
B23 showed a Kd (human IL-1α [1]) of 40 nM and a Kd (human IL-1α [18]) of 20 to 42 nM.

B24: ABT1-95-2 (other)
VL: DIQMTQSPSSLSASVGDRVTITCRASQPIHGNLRWYQQKPGKAPKLLIYSSSYLQSGVPSRFSGSGSGTDFTLTISSLQPEDFATYYCQQGYRWPVTFGQGTKVEIK
notes: dAb, Vκ, to IL-1α
B24 was tested, and the Kd (human IL-1α [1]) was 40 nM and the Kd (human IL-1α [18]) was 32 to 42 nM.
